Molecular target: T1, EsCas13d, nuclease-dead (Eubacterium siraeum, UniProt B0MS50, R295A;H300A;R849A;H854A)
T1 sequence: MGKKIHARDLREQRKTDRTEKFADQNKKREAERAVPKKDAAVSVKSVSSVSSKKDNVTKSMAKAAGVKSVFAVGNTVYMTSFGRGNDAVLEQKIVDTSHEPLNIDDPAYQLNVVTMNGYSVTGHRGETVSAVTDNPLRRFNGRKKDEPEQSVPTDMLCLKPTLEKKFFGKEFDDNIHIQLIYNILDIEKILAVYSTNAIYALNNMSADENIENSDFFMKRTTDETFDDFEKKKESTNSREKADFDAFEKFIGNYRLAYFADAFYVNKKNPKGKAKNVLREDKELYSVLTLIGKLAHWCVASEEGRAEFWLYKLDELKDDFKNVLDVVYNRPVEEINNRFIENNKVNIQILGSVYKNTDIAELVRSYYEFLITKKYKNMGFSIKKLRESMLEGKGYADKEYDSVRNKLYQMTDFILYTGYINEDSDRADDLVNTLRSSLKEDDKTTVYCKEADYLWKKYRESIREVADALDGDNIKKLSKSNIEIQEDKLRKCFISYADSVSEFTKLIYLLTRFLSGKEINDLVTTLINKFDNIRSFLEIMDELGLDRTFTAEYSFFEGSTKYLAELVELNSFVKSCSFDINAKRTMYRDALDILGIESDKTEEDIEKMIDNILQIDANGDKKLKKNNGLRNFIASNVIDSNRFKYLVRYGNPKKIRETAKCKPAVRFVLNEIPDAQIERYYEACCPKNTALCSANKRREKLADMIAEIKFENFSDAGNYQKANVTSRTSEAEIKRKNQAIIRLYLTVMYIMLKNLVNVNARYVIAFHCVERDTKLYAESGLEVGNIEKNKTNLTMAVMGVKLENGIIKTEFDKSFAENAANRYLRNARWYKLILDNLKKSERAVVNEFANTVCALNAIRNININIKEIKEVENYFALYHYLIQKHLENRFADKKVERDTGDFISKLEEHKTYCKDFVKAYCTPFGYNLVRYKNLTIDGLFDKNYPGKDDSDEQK
Assay: crRNA (strand 1, pre-loaded); Mg2+; 40 mM Tris-HCl pH 7.5, 150 mM NaCl, 6 mM MgCl2, 1 mM DTT, 0.1% Tween-20, 0.2 mg/ml BSA; 25 C; 10 min per concentration, then washed
Settings: tags: His6-TwinStrep-SUMO cleaved; N-terminal SNAP kept (SNAP-Surface 488); label: 3' end held by stalled T7 RNA polymerase

B1: target 2 MT 5'PFS UAU 3'PFS UUA (mixed)
RNA 1: CACCCGUGCAAAAUUGCAGGGGUCUAAAACCUUCUCCAAAUUGUUUCAUCCU
RNA 2: GGGAAUGGAUCCACAUCUACGAAUUCUAUAGGAUGAAACAAUUUGGAGAAGUUAAGAUCGGAAGAGCACACGU
Work on B1 yielded a Kd of 33 ± 9 nM.

B2: target 2 MT 5'PFS GAC 3'PFS UAA (mixed)
RNA 1: CACCCGUGCAAAAUUGCAGGGGUCUAAAACCUUCUCCAAAUUGUUUCAUCCU
RNA 2: GGGAAUGGAUCCACAUCUACGAAUUCGACAGGAUGAAACAAUUUGGAGAAGUAAAGAUCGGAAGAGCACACGU
For B2, the Kd was 9.5 ± 1.8 nM.

B3: target 2 MT 5'PFS CAU 3'PFS ACC (mixed)
RNA 1: CACCCGUGCAAAAUUGCAGGGGUCUAAAACCUUCUCCAAAUUGUUUCAUCCU
RNA 2: GGGAAUGGAUCCACAUCUACGAAUUCCAUAGGAUGAAACAAUUUGGAGAAGACCAGAUCGGAAGAGCACACGU
In the case of B3, the Kd is reported as 5.9 ± 0.7 nM.

B4: target 2 MT 5'PFS GCA 3'PFS UAA (mixed)
RNA 1: CACCCGUGCAAAAUUGCAGGGGUCUAAAACCUUCUCCAAAUUGUUUCAUCCU
RNA 2: GGGAAUGGAUCCACAUCUACGAAUUCGCAAGGAUGAAACAAUUUGGAGAAGUAAAGAUCGGAAGAGCACACGU
B4 showed a Kd of 6.4 ± 1.3 nM.

B5: target 2 MT 5'PFS UAU 3'PFS CAC (mixed)
RNA 1: CACCCGUGCAAAAUUGCAGGGGUCUAAAACCUUCUCCAAAUUGUUUCAUCCU
RNA 2: GGGAAUGGAUCCACAUCUACGAAUUCUAUAGGAUGAAACAAUUUGGAGAAGCACAGAUCGGAAGAGCACACGU
B5 was tested, and the Kd was 47 ± 9 nM.

B6: target 2 MT 5'PFS GCA 3'PFS UAU (mixed)
RNA 1: CACCCGUGCAAAAUUGCAGGGGUCUAAAACCUUCUCCAAAUUGUUUCAUCCU
RNA 2: GGGAAUGGAUCCACAUCUACGAAUUCGCAAGGAUGAAACAAUUUGGAGAAGUAUAGAUCGGAAGAGCACACGU
With B6 the Kd was 10.7 ± 1.5 nM.

B7: target 2 MT 5'PFS UAU 3'PFS CAA (mixed)
RNA 1: CACCCGUGCAAAAUUGCAGGGGUCUAAAACCUUCUCCAAAUUGUUUCAUCCU
RNA 2: GGGAAUGGAUCCACAUCUACGAAUUCUAUAGGAUGAAACAAUUUGGAGAAGCAAAGAUCGGAAGAGCACACGU
In the case of B7, the Kd is reported as 14.2 ± 1.5 nM.

B8: target 2 MT 5'PFS GCA 3'PFS UAG (mixed)
RNA 1: CACCCGUGCAAAAUUGCAGGGGUCUAAAACCUUCUCCAAAUUGUUUCAUCCU
RNA 2: GGGAAUGGAUCCACAUCUACGAAUUCGCAAGGAUGAAACAAUUUGGAGAAGUAGAGAUCGGAAGAGCACACGU
B8 showed a Kd of 12.3 ± 2.1 nM.

B9: target 2 MT 5'PFS CAU 3'PFS UCA (mixed)
RNA 1: CACCCGUGCAAAAUUGCAGGGGUCUAAAACCUUCUCCAAAUUGUUUCAUCCU
RNA 2: GGGAAUGGAUCCACAUCUACGAAUUCCAUAGGAUGAAACAAUUUGGAGAAGUCAAGAUCGGAAGAGCACACGU
B9 gave a Kd of 6.4 ± 1.5 nM.

B10: target 2 MT 5'PFS UAU 3'PFS CAG (mixed)
RNA 1: CACCCGUGCAAAAUUGCAGGGGUCUAAAACCUUCUCCAAAUUGUUUCAUCCU
RNA 2: GGGAAUGGAUCCACAUCUACGAAUUCUAUAGGAUGAAACAAUUUGGAGAAGCAGAGAUCGGAAGAGCACACGU
With B10 the Kd was 34 ± 7 nM.

B11: target 2 MT 5'PFS AAA 3'PFS UCC (mixed)
RNA 1: CACCCGUGCAAAAUUGCAGGGGUCUAAAACCUUCUCCAAAUUGUUUCAUCCU
RNA 2: GGGAAUGGAUCCACAUCUACGAAUUCAAAAGGAUGAAACAAUUUGGAGAAGUCCAGAUCGGAAGAGCACACGU
For B11, the Kd was 7.3 ± 1.4 nM.

B12: target 2 MT 5'PFS GAC 3'PFS UAC (mixed)
RNA 1: CACCCGUGCAAAAUUGCAGGGGUCUAAAACCUUCUCCAAAUUGUUUCAUCCU
RNA 2: GGGAAUGGAUCCACAUCUACGAAUUCGACAGGAUGAAACAAUUUGGAGAAGUACAGAUCGGAAGAGCACACGU
For B12, the Kd was 27 ± 8 nM.

B13: target 2 MT 5'PFS CAU 3'PFS UCG (mixed)
RNA 1: CACCCGUGCAAAAUUGCAGGGGUCUAAAACCUUCUCCAAAUUGUUUCAUCCU
RNA 2: GGGAAUGGAUCCACAUCUACGAAUUCCAUAGGAUGAAACAAUUUGGAGAAGUCGAGAUCGGAAGAGCACACGU
Binder B13 has a Kd of 3.8 ± 0.4 nM.

B14: target 2 MT 5'PFS UCA 3'PFS CUA (mixed)
RNA 1: CACCCGUGCAAAAUUGCAGGGGUCUAAAACCUUCUCCAAAUUGUUUCAUCCU
RNA 2: GGGAAUGGAUCCACAUCUACGAAUUCUCAAGGAUGAAACAAUUUGGAGAAGCUAAGAUCGGAAGAGCACACGU
For B14, the Kd was 6.3 ± 1.7 nM.

B15: target 2 MT 5'PFS AGA 3'PFS AUG (mixed)
RNA 1: CACCCGUGCAAAAUUGCAGGGGUCUAAAACCUUCUCCAAAUUGUUUCAUCCU
RNA 2: GGGAAUGGAUCCACAUCUACGAAUUCAGAAGGAUGAAACAAUUUGGAGAAGAUGAGAUCGGAAGAGCACACGU
For B15, the Kd was 8.2 ± 1.3 nM.

B16: target 2 MT 5'PFS GCG 3'PFS CGC (mixed)
RNA 1: CACCCGUGCAAAAUUGCAGGGGUCUAAAACCUUCUCCAAAUUGUUUCAUCCU
RNA 2: GGGAAUGGAUCCACAUCUACGAAUUCGCGAGGAUGAAACAAUUUGGAGAAGCGCAGAUCGGAAGAGCACACGU
With B16 the Kd was 12 ± 0.7 nM.

B17: target 2 MT 5'PFS UUA 3'PFS AUC (mixed)
RNA 1: CACCCGUGCAAAAUUGCAGGGGUCUAAAACCUUCUCCAAAUUGUUUCAUCCU
RNA 2: GGGAAUGGAUCCACAUCUACGAAUUCUUAAGGAUGAAACAAUUUGGAGAAGAUCAGAUCGGAAGAGCACACGU
Work on B17 yielded a Kd of 31 ± 5 nM.

B18: target 2 MT 5'PFS UUA 3'PFS AUG (mixed)
RNA 1: CACCCGUGCAAAAUUGCAGGGGUCUAAAACCUUCUCCAAAUUGUUUCAUCCU
RNA 2: GGGAAUGGAUCCACAUCUACGAAUUCUUAAGGAUGAAACAAUUUGGAGAAGAUGAGAUCGGAAGAGCACACGU
Binder B18 has a Kd of 50 ± 13 nM.

B19: target 2 MT 5'PFS GAC 3'PFS UAG (mixed)
RNA 1: CACCCGUGCAAAAUUGCAGGGGUCUAAAACCUUCUCCAAAUUGUUUCAUCCU
RNA 2: GGGAAUGGAUCCACAUCUACGAAUUCGACAGGAUGAAACAAUUUGGAGAAGUAGAGAUCGGAAGAGCACACGU
B19 showed a Kd of 7.5 ± 1 nM.

B20: target 2 MT 5'PFS CAU 3'PFS UCC (mixed)
RNA 1: CACCCGUGCAAAAUUGCAGGGGUCUAAAACCUUCUCCAAAUUGUUUCAUCCU
RNA 2: GGGAAUGGAUCCACAUCUACGAAUUCCAUAGGAUGAAACAAUUUGGAGAAGUCCAGAUCGGAAGAGCACACGU
B20 was tested, and the Kd was 8.1 ± 0.7 nM.

B21: target 2 MT 5'PFS GAC 3'PFS UAU (mixed)
RNA 1: CACCCGUGCAAAAUUGCAGGGGUCUAAAACCUUCUCCAAAUUGUUUCAUCCU
RNA 2: GGGAAUGGAUCCACAUCUACGAAUUCGACAGGAUGAAACAAUUUGGAGAAGUAUAGAUCGGAAGAGCACACGU
B21 gave a Kd of 10.8 ± 2.4 nM.

B22: target 2 MT 5'PFS AUC 3'PFS AAC (mixed)
RNA 1: CACCCGUGCAAAAUUGCAGGGGUCUAAAACCUUCUCCAAAUUGUUUCAUCCU
RNA 2: GGGAAUGGAUCCACAUCUACGAAUUCAUCAGGAUGAAACAAUUUGGAGAAGAACAGAUCGGAAGAGCACACGU
Binder B22 has a Kd of 25 ± 11 nM.

B23: target 2 MT 5'PFS UCA 3'PFS CUG (mixed)
RNA 1: CACCCGUGCAAAAUUGCAGGGGUCUAAAACCUUCUCCAAAUUGUUUCAUCCU
RNA 2: GGGAAUGGAUCCACAUCUACGAAUUCUCAAGGAUGAAACAAUUUGGAGAAGCUGAGAUCGGAAGAGCACACGU
Binder B23 has a Kd of 7.3 ± 1.1 nM.

B24: target 2 MT 5'PFS UUA 3'PFS AUA (mixed)
RNA 1: CACCCGUGCAAAAUUGCAGGGGUCUAAAACCUUCUCCAAAUUGUUUCAUCCU
RNA 2: GGGAAUGGAUCCACAUCUACGAAUUCUUAAGGAUGAAACAAUUUGGAGAAGAUAAGAUCGGAAGAGCACACGU
Work on B24 yielded a Kd of 27 ± 6 nM.

B25: target 2 MT 5'PFS GCA 3'PFS UAC (mixed)
RNA 1: CACCCGUGCAAAAUUGCAGGGGUCUAAAACCUUCUCCAAAUUGUUUCAUCCU
RNA 2: GGGAAUGGAUCCACAUCUACGAAUUCGCAAGGAUGAAACAAUUUGGAGAAGUACAGAUCGGAAGAGCACACGU
B25 showed a Kd of 12.3 ± 2.6 nM.

B26: target 2 MT 5'PFS CAU 3'PFS ACA (mixed)
RNA 1: CACCCGUGCAAAAUUGCAGGGGUCUAAAACCUUCUCCAAAUUGUUUCAUCCU
RNA 2: GGGAAUGGAUCCACAUCUACGAAUUCCAUAGGAUGAAACAAUUUGGAGAAGACAAGAUCGGAAGAGCACACGU
B26 gave a Kd of 6 ± 1.2 nM.

B27: target 1 insA 3' of 13,insA 3' of 11 (mixed)
RNA 1: CACCCGUGCAAAAAUGCAGGGGUCUAAAACUGAGCGGAUAACCUCUCUAUGG
RNA 2: GGGAAUGGAUCCACAUCUACGAAUUCGUACCAUAGAGAGAGUAUAUCCGCUCACCGAGAUCGGAAGAGCACACGU
B27 gave a Kd of 3.87 ± 0.21 nM.

B28: target 1 insU 3' of 22,insG 3' of 14 (mixed)
RNA 1: CACCCGUGCAAAAAUGCAGGGGUCUAAAACUGAGCGGAUAACCUCUCUAUGG
RNA 2: GGGAAUGGAUCCACAUCUACGAAUUCGUACUCAUAGAGAGGGUUAUCCGCUCACCGAGAUCGGAAGAGCACACGU
B28 was tested, and the Kd was 68 ± 22 nM.

Reference: article PMC10786891, “Massively parallel profiling of RNA-targeting CRISPR-Cas13d”
